Assay results published in patent publication US20190144544A1 (Eli Lilly, published 2019).
Blank lines part the entries; values can stand above or below the binder they belong to.

How the values were obtained:
cell surface PD-L1 = cell surface PD-L1 (human, UniProt Q9NZQ7 19-290); assay: cell-based or functional assay
human PD-L1 monomer = target: T1, human PD-L1 monomer (human, UniProt Q9NZQ7 19-238, limits assumed); assay: SPR (Biacore T200) at 20, 25, 37 and 42 °C, Fab as analyte over immobilised human PD-L1 monomer; van't Hoff analysis of the association phase
T1 construct: Amine-coupled to the sensor chip; also called hPD-L1 monomer; hPD-L1
T1 sequence (Q9NZQ7 19-238 limits assumed): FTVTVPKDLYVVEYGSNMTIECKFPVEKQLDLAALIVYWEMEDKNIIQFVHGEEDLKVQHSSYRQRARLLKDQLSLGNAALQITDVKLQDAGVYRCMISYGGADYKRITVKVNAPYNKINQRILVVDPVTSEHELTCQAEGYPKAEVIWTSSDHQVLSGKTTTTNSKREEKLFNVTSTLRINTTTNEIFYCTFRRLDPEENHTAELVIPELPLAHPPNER
Method: The sample gradients are prepared in the running buffer HBS-EP (0.01M HEPES pH 7.4, 0.15M NaCl, 3 mM EDTA, 0.005% v/v surfactant P20). The binding experiments are repeated at four different temperatures: 20° C., 25° C., 37° C. and 42° C. Throughout the kinetics experiments, the flow rate is maintained at 30 μl/min and the association/contact time at 180 sec for all three Fabs. […] After dissociation, a 0.75 M NaCl, 25 mM NaOH solution regenerates the immobilized hPD-L1, and then the surface is stabilized for 30 sec with the running buffer. […] The binding kinetics are analyzed using the Biacore T200 Evaluation software (Version 3.0). Data is referenced to a blank flow cell, and the data is fitted to the 1:1 Langmuir binding model.
Steady-state, association, and dissociation are the three binding phases analyzed. MATLAB is utilized for the linear regression analysis.

cell surface PD-L1, sequence (Q9NZQ7 19-290 limits assumed): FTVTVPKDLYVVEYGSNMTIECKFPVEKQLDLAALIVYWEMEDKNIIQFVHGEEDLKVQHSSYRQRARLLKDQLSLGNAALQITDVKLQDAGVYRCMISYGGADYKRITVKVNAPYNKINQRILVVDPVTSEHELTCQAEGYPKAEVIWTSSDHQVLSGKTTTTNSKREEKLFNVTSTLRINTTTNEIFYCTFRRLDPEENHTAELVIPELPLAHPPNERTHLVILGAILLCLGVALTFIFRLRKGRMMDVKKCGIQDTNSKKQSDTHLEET

IFN-γ secretion fold change vs. IgG control, mixed lymphocyte reaction, 0.01 nM antibody (cell surface PD-L1): 1.25 fold | IFN-γ secretion fold change vs. IgG control, mixed lymphocyte reaction, 0.05 nM antibody (cell surface PD-L1): 1.95 fold | IFN-γ secretion fold change vs. IgG control, mixed lymphocyte reaction, 0.27 nM antibody (cell surface PD-L1): 2.68 fold | IFN-γ secretion fold change vs. IgG control, mixed lymphocyte reaction, 1.3 nM antibody (cell surface PD-L1): 4.13 fold | IFN-γ secretion fold change vs. IgG control, mixed lymphocyte reaction, 6.7 nM antibody (cell surface PD-L1): 4.11 fold | IFN-γ secretion fold change vs. IgG control, mixed lymphocyte reaction, 33.3 nM antibody (cell surface PD-L1): 5.71 fold
B1: Antibody A (antibody, human IgG1, lambda, V domains shown)
VH: QVQLVQSGAEVKKPGSSVKVSCKASGGTFSSYAISWVRQAPGQGLEWMGGIIPIFGTANYAQKFQGRVTITADKSTSTAYMELSSLRSEDTAVYYCARSPDYSPYYYYGMDVWGQGTTVTVSS
VL: QSVLTQPPSASGTPGQRVTISCSGSSSNIGSNTVNWYQQLPGTAPKLLIYGNSNRPSGVPDRFSGSKSGTSASLAISGLQSEDEADYYCQSYDSSLSGSVFGGGIKLTVLG

ΔSon (human PD-L1 monomer): -26
B2: Antibody A-Fab (Fab, V domains shown)
VH: B1 VH
VL: B1 VL
notes: CH1 and the lambda constant domain are not specified for the Fab; also called Fab of Antibody A
